Measured values as given in patent publication US8063008B2, “Enzymatic production of peracids using perhydrolytic enzymes” (E. I. du Pont de Nemours and Company, priority 2005, dated 2011).

Columns and labels:
Type in all cases: biochemical
[1] = Lipase-catalyzed perhydrolysis of triacetin at pH 6.5 (Example 1); conditions: 250 mM triacetin, 500 mM H2O2, pH 6.5, 1 mg enzyme, 22° C.
Method: Into a 4-mL glass vial with stir bar was added 1 mg enzyme (ICR 101-117, BioCatalytics, Pasadena, Calif.) in 0.050 mL of 50 mM potassium phosphate buffer (pH 6.5), 0.900 mL of 278 mM triacetin in 50 mM potassium phosphate buffer (pH 6.5, 250 mM final triacetin concentration), and 0.052 mL 30% hydrogen peroxide (500 mM final concentration). After stirring for 5 or 30 minutes at 22° C., a 0.250 mL sample was filtered using a 30,000 Nominal Molecular Weight Limit (NMWL) filter (Millipore UltraFree-MC, Millipore Corp., Billerica, Mass.) centrifuged for 2 minute at 12,000 RPM. A portion of the filtered reaction samples was diluted 1:10 with dd water and analyzed for hydrogen peroxide, and the remaining portion of the sample was directly analyzed for peracid using the HPLC assay method (Table 1).

[2] = Lipase-catalyzed perhydrolysis of triacetin at pH 4.0 (Example 2); conditions: 250 mM triacetin, 500 mM H2O2, pH 4.0, 1 mg enzyme, 22° C.
Method: (§1) Into a 4-mL glass vial with stir bar was added 1 mg enzyme (ICR 101-117, BioCatalytics, Pasadena, Calif.) in 0.050 mL of 50 mM sodium acetate/acetic acid buffer (pH 4.0), 0.900 mL of 278 mM triacetin in 50 mM sodium acetate/acetic acid buffer (pH 4.0, 250 mM final triacetin concentration), and 0.052 mL 30% hydrogen peroxide (500 mM final concentration). […] A portion of the filtered reaction samples was diluted 1:10 with dd water and analyzed for hydrogen peroxide, and the remaining portion of the sample was directly analyzed for peracid using the HPLC assay method (Table 2).

[3] = Lipase-catalyzed perhydrolysis of a mixture of diacetin, triacetin and monoacetin at pH 6.5 (Example 4); conditions: diacetin (278 mM), triacetin (144 mM), monoacetin (131 mM); for 250 mM H2O2 peracetic acid (ppm), 5 min / 250 mM H2O2 peracetic acid (ppm), 30 min: pH 6.5, 250 mM H2O2, 1 mg enzyme; for 500 mM H2O2 peracetic acid (ppm), 5 min / 500 mM H2O2 peracetic acid (ppm), 30 min: pH 6.5, 500 mM H2O2, 1 mg enzyme
Method: Into a 4-mL glass vial with stir bar was added 1 mg enzyme (ICR 101-117, BioCatalytics, Pasadena, Calif.) in 0.050 mL of 50 mM potassium phosphate buffer (pH 6.5), 0.900 mL of an aqueous mixture containing diacetin (278 mM), triacetin (144 mM) and monoacetin (131 mM) in 50 mM potassium phosphate buffer (pH 6.5), and either 0.052 mL 30% hydrogen peroxide (500 mM final concentration) or 0.026 mL 30% hydrogen peroxide (250 mM final concentration). […] A portion of the filtered reaction samples was diluted 1:10 with dd water and analyzed for hydrogen peroxide, and the remaining portion of the sample was directly analyzed for peracid using the HPLC assay method (Table 4).

[4] = Protease-catalyzed perhydrolysis of acetamide at pH 4.0 (Example 6); conditions: pH 4.0, 500 mM H2O2, 1 mg protease
Method: as §1, with “protease (Table 6)” for “enzyme (ICR 101-117, BioCatalytics, Pasadena, Calif.)”, “an aqueous mixture containing either a) acetamide (278 mM)” for “278 mM triacetin”, “4.0) or b) diacetamide (278 mM) in 50” for “4.0, 250”, “sodium acetate/acetic acid buffer (pH 4.0),” for “final triacetin concentration),”, “7).” for “2).”

[5] = Protease-catalyzed perhydrolysis of acetamide at pH 6.5 (Example 9); conditions: pH 6.5, 500 mM H2O2, 1 mg protease
Method: (§2) Into a 4-mL glass vial with stir bar was added 1 mg protease (Table 6) in 0.050 mL of 50 mM potassium phosphate buffer (pH 6.5), 0.900 mL of an aqueous mixture containing either a) acetamide (278 mM) in 50 mM potassium phosphate buffer (pH 6.5) or b) diacetamide (278 mM) in 50 mM potassium phosphate buffer (pH 6.5), and 0.052 mL 30% hydrogen peroxide (500 mM final concentration). […] A portion of the filtered reaction samples was diluted 1:10 with dd water and analyzed for hydrogen peroxide, and the remaining portion of the sample was directly analyzed for peracid using the HPLC assay method (Table 10).

[6] = Protease-catalyzed perhydrolysis of diacetamide at pH 6.5 (Example 9); conditions: pH 6.5, 500 mM H2O2, 1 mg protease
Method: as §2

Molecule | peracetic acid (ppm), 5 min [1] [ppm] | peracetic acid (ppm), 30 min [1] [ppm] | peracetic acid (ppm), 5 min [2] [ppm] | peracetic acid (ppm), 30 min [2] [ppm] | 250 mM H2O2 peracetic acid (ppm), 5 min [3] [ppm] | 250 mM H2O2 peracetic acid (ppm), 30 min [3] [ppm] | 500 mM H2O2 peracetic acid (ppm), 5 min [3] [ppm] | 500 mM H2O2 peracetic acid (ppm), 30 min [3] [ppm] | acetamide (250 mM) peracetic acid (ppm), 5 min ([4]; 5 min) [ppm] | acetamide (250 mM) peracetic acid (ppm), 30 min ([4]; 30 min) [ppm] | acetamide (250 mM) peracetic acid (ppm), 5 min ([5]; 5 min) [ppm] | acetamide (250 mM) peracetic acid (ppm), 30 min ([5]; 30 min) [ppm] | diacetamide (250 mM) peracetic acid (ppm), 5 min ([6]; 5 min) [ppm] | diacetamide (250 mM) peracetic acid (ppm), 30 min ([6]; 30 min) [ppm]
ICR-116: Mucor miehei lipase, BioCatalytics (protein, UniProt P19515 95-363, looked up) Lipase: SIDGGIRAATSQEINELTYYTTLSANSYCRTVIPGATWDCIHCDATEDLKIIKTWSTLIYDTNAMVARGDSEKTIYIVFRGSSSIRNWIADLTFVPVSYPPVSGTKVHKGFLDSYGEVQNELVATVLDQFKQYPSYKVAVTGHSLGGATALLCALDLYQREEGLSSSNLFLYTQGQPRVGDPAFANYVVSTGIPYRRTVNERDIVPHLPPAAFGFLHAGEEYWITDNSPETVQVCTSDLETSDCSNSIVPFTSVLDHLSYFGINTGLCT | 238 | 117 | 14 | 0 | 0 | 7 | 0 | 0 | – | – | – | – | – | –
ICR-115: Thermomyces languinosus lipase, BioCatalytics (protein, UniProt O59952 23-291, looked up) Lipase: EVSQDLFNQFNLFAQYSAAAYCGKNNDAPAGTNITCTGNACPEVEKADATFLYSFEDSGVGDVTGFLALDNTNKLIVLSFRGSRSIENWIGNLNFDLKEINDICSGCRGHDGFTSSWRSVADTLRQKVEDAVREHPDYRVVFTGHSLGGALATVAGADLRGNGYDIDVFSYGAPRVGNRAFAEFLTVQTGGTLYRITHTNDIVPRLPPREFGYSHSSPEYWIKSGTLVPVTRNDIVKIEGIDATGGNNQPNIPDIPAHLWYFGLIGTCL | 216 | 113 | 206 | 132 | 0 | 8 | 11 | 8 | – | – | – | – | – | –
ICR-114: porcine pancreas lipase, BioCatalytics (protein, UniProt P00591 1-450, looked up) Pancreatic triacylglycerol …: SEVCFPRLGCFSDDAPWAGIVQRPLKILPWSPKDVDTRFLLYTNQNQNNYQELVADPSTITNSNFRMDRKTRFIIHGFIDKGEEDWLSNICKNLFKVESVNCICVDWKGGSRTGYTQASQNIRIVGAEVAYFVEVLKSSLGYSPSNVHVIGHSLGSHAAGEAGRRTNGTIERITGLDPAEPCFQGTPELVRLDPSDAKFVDVIHTDAAPIIPNLGFGMSQTVGHLDFFPNGGKQMPGCQKNILSQIVDIDGIWEGTRDFVACNHLRSYKYYADSILNPDGFAGFPCDSYNVFTANKCFPCPSEGCPQMGHYADRFPGKTNGVSQVFYLNTGDASNFARWRYKVSVTLSGKKVTGHILVSLFGNEGNSRQYEIYKGTLQPDNTHSDEFDSDVEVGDLQKVKFIWYNNNVINPTLPRVGASKITVERNDGKVYDFCSQETVREEVLLTLNPC | 135 | 0 | 165 | 53 | 0 | 0 | 0 | 0 | – | – | – | – | – | –
Proteinase K, T. album, recombinantly expressed in P. pastoris: Proteinase K, T. album, recombinantly expressed in P. pastoris, Roche 3115879 (protein, UniProt P06873 106-384, looked up, recombinant, Pichia pastoris) Proteinase K: AAQTNAPWGLARISSTSPGTSTYYYDESAGQGSCVYVIDTGIEASHPEFEGRAQMVKTYYYSSRDGNGHGTHCAGTVGSRTYGVAKKTQLFGVKVLDDNGSGQYSTIIAGMDFVASDKNNRNCPKGVVASLSLGGGYSSSVNSAAARLQSSGVMVAVAAGNNNADARNYSPASEPSVCTVGASDRYDRRSSFSNYGSVLDIFGPGTSILSTWIGGSTRSISGTSMATPHVAGLAAYLMTLGKTTAASACRYIADTANKGDLSNIPFGTVNLLAYNNYQA | – | – | – | – | – | – | – | – | 26 | 43 | 150 | 194 | 66 | 99
ICR-107: Pseudomonas cepacia lipase, BioCatalytics (protein, UniProt P22088 45-364, looked up) Triacylglycerol lipase: AAGYAATRYPIILVHGLSGTDKYAGVLEYWYGIQEDLQQNGATVYVANLSGFQSDDGPNGRGEQLLAYVKTVLAATGATKVNLVGHSQGGLSSRYVAAVAPDLVASVTTIGTPHRGSEFADFVQDVLAYDPTGLSSSVIAAFVNVFGILTSSSHNTNQDALAALQTLTTARAATYNQNYPSAGLGAPGSCQTGAPTETVGGNTHLLYSWAGTAIQPTLSVFGVTGATDTSTLPLVDPANVLDLSTLALFGTGTVMINRGSGQNDGLVSKCSALYGKVLSTSYKWNHLDEINQLLGVRGAYAEDPVAVIRTHANRLKLAGV | 179 | 0 | 32 | 135 | 0 | 102 | 17 | 54 | – | – | – | – | – | –
